# B1: CP-His (natural protein)
# chain: MPNVSLTAKGGGHYIEDQWDTQVVEAGVFDDWWVHVEAWNKFLDNLRGINFSVASSRSQVAEYLAALDRDLPADVDRRFAGARGQIGSPNYLPAPKFFRLDKRTIAELTRLSRLTDQPHNNRDIELNRAKRATTNPSPPAQAPSENLTLRDVQPLKDSALHYQYVLIDLQSARLPVYTRKTFERELALEWIIPDAEEA
# Experiments:
# [1] = target: BSMV virions (barley stripe mosaic virus (ND18 strain)); test: immunogold labelling of purified virions (TEM); virions purified from infected leaves, adsorbed onto nickel grids, rabbit antiserum against the CRP 1:100 in BL buffer 2 h at room temperature, goat anti-rabbit 10 nm gold, TEM at 80 kV; also after 0.02 mM EDTA at 4°C for 12 h (fewer gold particles)
# BSMV virions = test: immunogold labeling with γb antibody, TEM; conditions: virions purified from infected N. benthamiana leaves at 5 dpi; n = 13; parent: est. 48; read off a plot
# CP-His = CP-His (UniProt P04866); test: GST pull-down; conditions: scale: relative anti-His band intensity
# GST-γb = test: GST pull-down; conditions: scale: relative anti-His band intensity
# [2] = target: γb protein of BSMV, expressed by the virus; test: immunogold labeling with γb antibody, TEM; conditions: virions purified from infected N. benthamiana leaves at 5 dpi; n = 13; parent: est. 48; read off a plot
# [3] = target: γb-GFP-His (barley stripe mosaic virus (ND18 strain)); test: MST; γb-GFP-His held constant (10 μM), CP-His titrated from 20 μM; PBS with 0.1% Tween 20, 25°C, 20% LED-power, 40% MST-power, Monolith NT.115; no Zn^2+ added
# [4] = target: GST-γb (barley stripe mosaic virus (ND18 strain)); test: pull-down; GST pull-down: purified GST-tag protein with His-tag protein in 50 mM Tris-HCl pH 6.8, 500 mM NaCl, 1.5% glycerol, 0.6% Triton-X 100, 0.1% Tween 20, 3 h at 4°C; with or without 10 μg RNaseA, Zn^2+ 2-200 μM, 20 μM other divalent cations, or EDTA (200 μM in Fig 4D and 4E); blots with anti-GST or anti-His
# [5] = target: γb-GFP-His (barley stripe mosaic virus (ND18 strain)); test: MST; γb protein with 5 μM Zn^2+ in the buffer held constant, CP protein added as ligand; Monolith NT.115
# [6] = target: γb-GFP-His (barley stripe mosaic virus (ND18 strain)); test: MST; γb-GFP-His held constant (10 μM), CP-His titrated from 20 μM; PBS with 0.1% Tween 20, 25°C, 20% LED-power, 40% MST-power, Monolith NT.115; no Zn^2+ added; remark: listed apart in the source
molecule,measurement,setting,value
"γb protein of BSMV, expressed by the virus (natural protein)",percent of virions labelled with gold particles (γb antibody),[1],50.9%
"γb protein of BSMV, expressed by the virus H85A",response,BSMV virions,8%
GST-γb H85A,response,"CP-His; EDTA (200 μM), parent: 0.20",0.23
same,response,"CP-His; no EDTA, parent: 1.00",0.21
CP-His (from UniProt P04866) H13A,response,"GST-γb; EDTA (200 μM), parent: 0.05",0.04
same,response,"GST-γb; no EDTA, parent: 1.00",0.11
BSMV virions H13A,response,[2],3%
B1,Kd,[3],0.63 µM
same,fold reduction of the pull-down with 200 μM EDTA,[4],5 fold
same,Kd,[5],0.15 µM
same,Kd,[6],0.46 µM

# Reference: publication PMC11213338
